Laboratory results: patent US20130115224A1 (published 2013)
Where a chain is given by its changes, count along the chain named.

B1: 3C-H2 / LOE7 scFv (scFv, V domains shown)
VH: QVQLVESGGGLVQPGRSLRLSCAASGFTFDDYAMHWVRQAPGKGLDWVSAITWNSGHIDYADSVEGRFAVSRDNAKNALYLQMNSLRPEDTAVYYCAKASYLSTASSLEYWGQGTLVTVSS
VL: not shown
B2: 2SD4 VH / VLLOE5 scFv (scFv, V domains shown)
VH: B1 VH with A97T, A105S, E109D, Y110N
VL: DIQMTQSPSSLSASIGDRVTITCRASQGIRNYLAWYQQKPGKAPKLLIYAASTLQSGVPSRFSGSGSGTDFTLTISSLQPEDVATYYCQKYNSAPYYFGQGTKVEIK

Key:
recombinant human TNFα [1] = biological target: T1, recombinant human TNFα (human, UniProt P01375 77-233, biotinylated (2:1 molar ratio of biotin to rhTNFα) in the SPR assays; 125I-labeled in the receptor binding assays); assay: SPR (BIAcore), scFv over biotinylated rhTNFα
T1 construct: also called rhTNFα; rhTNF

recombinant human TNFα [2] = biological target: T1, recombinant human TNFα; assay: SPR (BIAcore), scFv over biotinylated rhTNFα; remark: listed apart in the source

T1 sequence (P01375 77-233 limits assumed): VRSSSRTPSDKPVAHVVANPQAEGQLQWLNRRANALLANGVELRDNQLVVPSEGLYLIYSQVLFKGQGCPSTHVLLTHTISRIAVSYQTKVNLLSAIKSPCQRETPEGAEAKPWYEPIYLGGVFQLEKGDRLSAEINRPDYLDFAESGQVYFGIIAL

Binder	koff (recombinant human TNFα [1]) [s⁻¹]	fold faster off rate than with the D2E7 VH CDR3 (recombinant human TNFα [2]) [fold]
B1	0.0015	3
B2	0.0116	–
